According to paper PMC8622885:

Molecular target: thermostable exoshell (tES) (Archaeoglobus fulgidus) (UniProt O29424)
Assay: AUC; unpublished observations; no conditions given

Chain of UniProt O29424 (O29424 entry or part of it): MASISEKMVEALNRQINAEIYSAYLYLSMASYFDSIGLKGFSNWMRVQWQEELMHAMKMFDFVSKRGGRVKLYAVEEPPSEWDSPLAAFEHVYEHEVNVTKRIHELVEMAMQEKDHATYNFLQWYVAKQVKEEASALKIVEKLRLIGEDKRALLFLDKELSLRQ

stoichiometry N (HRP molecules per tES): 2
Substance: horseradish peroxidase (HRP) (from UniProt P00433 31-338) (enzyme)
